Non-standard residues stand in square brackets, D forms with d. Primed or numbered codes have the meaning given here. No end group written: not given here. *: point of attachment. DTPA′ = diethylenetriaminepentaacetic acid (Gd(III) complex) N-cap, O=C([O-])CN(CCN(CC(=O)[O-])CC(=O)[O-])CCN(CC(=O)[O-])CC(=O)*.[Gd+3]; PEG3′ = not defined here
Biological target: T1, human recombinant MMP-7 (Homo sapiens, UniProt P09237)
T1 sequence (P09237 95-267): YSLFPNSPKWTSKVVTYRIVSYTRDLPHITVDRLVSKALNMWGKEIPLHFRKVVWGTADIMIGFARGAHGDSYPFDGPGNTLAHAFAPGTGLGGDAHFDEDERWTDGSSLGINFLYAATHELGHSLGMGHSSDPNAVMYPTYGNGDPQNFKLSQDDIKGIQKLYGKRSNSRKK
Test: Enzymatic cleavage by MMP-7, analysed by ESI-MS
Assay type: biochemical
Method: During development of embodiments of the present invention, a 2 μL aliquot of human recombinant MMP-7 was thawed on ice, diluted to 50 μL with assay buffer containing 1 mM APMA, and incubated for 1 hour at 37° C. to activate the enzyme. To the activated enzyme solution was added 1 μL of a 20 mM solution of gadolinium(III)-diethylenetriaminepentaacetic acid-Ala-Pro-Leu-Ala-Leu-Trp-Ala-PEG3-Ala. The solution was incubated at 37° C. for 24 hours after which 10 μL was dissolved in 50 μL MeOH for analysis by ESI-MS.
1542.75; found negative mode 771.60, (m/2)]

In the case of “Gadolinium(III)-diethylenetriaminepentaacetic Acid-Ala-Pro-Leu-Ala-Leu-Trp-Ala-PEG3-Ala ({DTPA′}-APLALWA[PEG3′]A; also: Gd(III) complexed by DTPA)”, the “cleavage by MMP-7 (ESI-MS)” value (activated MMP-7, 37° C., 24 hours) is reported as “revealed a peak corresponding to the MMP-7 cleavage fragment Leu-Trp-Ala-PEG3-Ala” and the “ESI-MS of control solution lacking MMP-7” value (no MMP-7) is reported as “revealed only the expected uncleaved”.

— patent US8337813B2, “Contrast agents” (Northwestern University, priority 2007, dated 2012)
